Reference: PMC4348151

How the values were obtained:
[1] = target: gp41-longNC; test: BLI; conditions: pH 4.0; second pH 7.0; 0.1% DPC
[2] = target: gp41-longNC (HIV-1) (UniProt P04578); test: AUC

## 2F5
[1]
  fold difference in KD at pHs 4 and 7: 4,000-fold

## 4E10
[1]
  fold difference: 30-fold

## gp41-longNC (from UniProt P04578) (domain or fragment)
[2]
  stoichiometry N: 3
